The data set addresses T1, LtrA (Lactococcus lactis) (UniProt P0A3U0).
T1 sequence: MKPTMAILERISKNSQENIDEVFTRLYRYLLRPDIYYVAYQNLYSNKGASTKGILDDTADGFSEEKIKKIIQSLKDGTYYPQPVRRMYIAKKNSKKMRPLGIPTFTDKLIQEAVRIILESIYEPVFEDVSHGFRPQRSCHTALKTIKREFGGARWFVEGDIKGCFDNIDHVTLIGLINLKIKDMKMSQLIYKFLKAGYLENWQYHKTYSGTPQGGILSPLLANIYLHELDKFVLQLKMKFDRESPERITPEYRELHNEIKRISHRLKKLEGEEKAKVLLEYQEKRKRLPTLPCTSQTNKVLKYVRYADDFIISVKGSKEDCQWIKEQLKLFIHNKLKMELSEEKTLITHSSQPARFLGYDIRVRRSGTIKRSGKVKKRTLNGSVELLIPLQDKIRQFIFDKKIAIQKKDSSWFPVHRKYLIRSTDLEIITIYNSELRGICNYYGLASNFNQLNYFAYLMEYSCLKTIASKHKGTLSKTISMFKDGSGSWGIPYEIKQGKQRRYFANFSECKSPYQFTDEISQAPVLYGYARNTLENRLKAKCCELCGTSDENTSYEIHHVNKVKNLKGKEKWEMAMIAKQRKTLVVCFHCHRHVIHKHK
The data set can be described thus: cleavage_in_vitro.

Results on one substance are retold here after US20020086323.

As to Ll.ltrB intron RNA ; ltrB +2 to +5 TGCG, the binding signal is < 10 % of WT.
